From US12698495B2, “Engineered tryptophan decarboxylases and uses thereof for synthesizing tryptamine analogs” (priority 2022, dated 2026)
Substitutions are numbered along the chain they refer to. Names may count otherwise.

How the values were obtained:
serotonin receptor = settings: known from literature (ref. 43); cited from earlier work
[1] = cited from earlier work
[2] = PfTrpB variant activity and promiscuity; type: biochemical, Pyrococcus furiosus

## CCOc1ccc2[nH]cc(CCN)c2c1 [5-OEt-tryptamine]
Serotonin receptor
  serotonin receptor activity: agonists

## COc1ccc2[nH]cc(CCN)c2c1 [5-OMe-tryptamine]
Serotonin receptor
  serotonin receptor activity: agonists

B1: 2B9: engineered PfTrpB variant 2B9, SEQ ID NO:3 (protein, listed as Pyrococcus furiosus)
chain: MWFGEFGGQYVPETLVGPLKELEKAYKRFKDDEEFNRQLNYYLKTWAGRPTPLYYAKRLTEKIGGAKVYLKREDLVHGGAHKTNNAIGQALLAKLMGKTRLIAETGAGQHGVATAMAGALLGMKVDIYMGAEDVERQKMNVFRMKLLGANVIPVNSGSRTLKDAINEALRDWVATFEYTHYLIGSVVGPHPYPTIVRDFQSVIGREAKAQILEAEGQLPDVIVACVGGGSNAMGIFYPFVNDKKVKLVGVEAGGKGLESGKHSASLNAGQVGVSHGMLSYFLQDEEGQIKPSHSIAPGLDYPGVGPEHAYLKKIQRAEYVAVTDEEALKAFHELSRTEGIIPALESAHAVAYAMKLAKEMSRDEIIIVNLSGRGDKDLDIVLKASGNVLEHHHHHH
[1]; 75° C.
  activity with a variety of substrate analogs: high activity
[1]; lower temperatures than 75° C.
  activity at lower temperatures: activity decreases

B2: H275E (protein, listed as Pyrococcus furiosus)
chain: B1 chain with H275E
[2]
  activity and promiscuity of PfTrpB variant in SUMS: generally activated
[2]; 75° C.
  activity of PfTrpB mutant: activating
